Consider one molecule from patent US7871610B2, “Antibodies to Tie1 ectodomain” (Dyax Corp., priority 2003, dated 2011).

“Also recorded” adds a separate entry of the source.

Assay [1] addresses T1, recombinant human Tie1-Fc (Homo sapiens, UniProt P35590).
T1 construct: selected against the Tie1 extracellular domain fused to human Fc or to a histidine purification tag
T1 sequence (P35590 22-759 limits assumed): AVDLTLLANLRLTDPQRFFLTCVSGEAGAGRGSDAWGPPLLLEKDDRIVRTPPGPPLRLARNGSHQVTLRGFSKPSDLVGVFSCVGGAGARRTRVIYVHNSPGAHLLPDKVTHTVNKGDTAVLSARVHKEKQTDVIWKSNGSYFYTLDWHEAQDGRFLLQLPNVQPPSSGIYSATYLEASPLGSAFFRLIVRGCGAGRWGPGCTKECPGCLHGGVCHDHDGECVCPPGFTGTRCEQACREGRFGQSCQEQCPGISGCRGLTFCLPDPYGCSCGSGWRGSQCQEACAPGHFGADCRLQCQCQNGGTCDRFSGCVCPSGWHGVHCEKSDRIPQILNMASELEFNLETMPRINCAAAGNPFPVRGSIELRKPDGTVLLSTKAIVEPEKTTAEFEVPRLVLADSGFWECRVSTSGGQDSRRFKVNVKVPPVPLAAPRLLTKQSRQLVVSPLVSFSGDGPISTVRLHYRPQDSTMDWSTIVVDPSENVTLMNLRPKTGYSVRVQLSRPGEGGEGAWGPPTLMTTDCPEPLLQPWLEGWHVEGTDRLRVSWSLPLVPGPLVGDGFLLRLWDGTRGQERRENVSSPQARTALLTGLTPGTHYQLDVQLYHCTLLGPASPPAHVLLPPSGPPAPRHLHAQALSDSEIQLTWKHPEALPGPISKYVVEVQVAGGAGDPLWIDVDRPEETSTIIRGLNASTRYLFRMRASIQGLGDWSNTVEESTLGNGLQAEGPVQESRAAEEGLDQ
The assay is described as follows: BIAcore, coated E3 IgGs with recombinant human Tie-1 Fc. Format: binding. Conditions: IgG, human Tie1 Fc. On the procedure:
The germlined E3 IgG1 stock solution 0.63 mg/ml was diluted 1/50 in a buffer of pH4.5 and the parental E3 IgG1 stock solution 0.56 mg/ml (2143-001) was diluted 1/50 in a buffer of pH 4.5. The IgG were directly coated onto a CM5 chip. The surface of the chips was activated with a 7 minute pulse of 0.05M NHS/0.2M EDC and the IgG was flowed over until 780RU germlined E3-IgG and 728 non germlined E3 IgG was coated onto the surface. All flow cells were subsequently deactivated with a 7 minute pulse of 1M ethanolamine hydrochloride pH 8.5. All analysis was performed in HBS buffer. Purified recombinant human Tie-1 Fc was diluted 1/28.7 in HBS to obtain a 400 nM stock solution. Serial dilutions were made to obtain 200 nM, 100 nM, 50 nM and 25 nM Tie-1 Fc stocks. For analysis of the association phase samples were injected at 30 μl/min for 8.3 minutes using kinject program. This was followed by a 40 minutes dissociation phase. Any antigen remaining associated to the surface was stripped from the IgG surface at a flow of 50 μl/min with two injections of 10 mM glycine pH 1.5 for 30 secods. All samples were run and analyzed in duplicate
(§1) Sensorgrams were analyzed using the simultaneous ka/kd fitting program with 1:1 model in the BIAEVALUATION™ software 3.1.
In general terms: Surface plasmon resonance follows binding to a sensor surface in real time, without labels.

For the next assay, the system named is human platelets. Kind of assay: Flow cytometry binding to human platelets. Conditions: non-activated human platelets, 2 and 10 μg/ml. How it is done: To avoid platelet activation, human platelets were isolated from plasma of healthy donors using the platelet GelSep kit (Biocytex, Marseille, France) kit according to the guidelines of the manufacturer. Platelets were activated by the addition of thrombin to a final concentration of 0.8 U/ml. To distinguish activated from non-activated platelets double staining was performed with Tie-1 antibodies/control antibodies and antibody CD42 (total platelets) or CD62 (activated platelets).
After preparation, platelets were resuspended in buffer 2 of the GelSep kit, 10% heat inactivated human serum (incubation buffer) and incubated for 1 hour. […] Platelets were spun down by centrifugation for 10 min at 611 g. Between incubations platelets were washed twice with Buffer 1 of the GelSep kit. Then, Strepatvidin-R-phycoerythrin together with anti-CD42-PercP or anti-CD62-PercP were incubated for 30 minutes at room temperature in incubation buffer After the last incubation and washing detection of bound antibodies was performed by means of flow cytometry on a FACSscan and Epics Altra (Becton Dickinson, Oxnard, Coulter) and results analyzed. Cells were gated on SSC and anti-CD42-PercP for the total platelets in case non-activated platelets were used and on SSC and anti-CD62-PercP for the activated platelets.
Background: Flow cytometry measures light scatter and fluorescence of single cells or particles in a stream.

Assay [2] addresses T1, recombinant human Tie1-Fc. Kind of assay: BIAcore, E3 Fabs on recombinant human Tie1-Fc. The assay is classed as binding. The conditions noted are these: Fab. How it is done:
Recombinant purified human Tie1-Fc antigen (Stock 2.45 mg/ml) was biotinylated using the EZ-link Sulfo-NHS-SS-Biotin (Pierce, Cat. 21331). The reaction was performed for 2 hours on ice in 50 mM sodium carbonate buffer, pH 9.6, in the presence of a 5-fold molar excess of biotinylating agent and was stopped by the addition of Tris-HCl, pH 7.5 (50 mM final concentration) followed by a 1-hour incubation on ice. Samples were then dialyzed against PBS. The antigen was then diluted 1/100 fold in HBS and was then captured onto a streptavidin chip. This was coated to a density of 830RU (resonance units). All analysis was performed in HBS buffer. The parental Fab E3 and germlined E3 Fab were prepared as described above. A stock solution of 0.587 mg/ml (11740 nM) was diluted 1/587 in HBS+BSA to obtain a stock of 20 nM and the germlined Fab E3 0.025 mg/ml (500 nM) was diluted 1/25 in HBS+BSA to obtain a stock of 20 nM. Serial dilutions were made of each Fab preparation to obtain 10 nM, 5 nM, 2.5 nM, and 1.25 nM solutions. For the association phase samples were injected at 30 μl/min for 4 minutes using kinject program. […] All samples were run and analyzed in duplicate.
as §1

B1: E3: human anti-Tie1 antibody from Fab phage library; HC SEQ ID NO:114, LC SEQ ID NO:116 (antibody, V domains shown)
VH: EVQLLESGGGLVQPGGSLRLSCAASGFTFSMYGMVWVRQAPGKGLEWVSVISPSGGNTGYADSVKGRFTISRDNSKNTLYLQVNSLRAEDTAVYYCARAPRGYSYGYYYWGQGTLVTVSSASTKGPSVFPLAPSSKSTSGG
VL: DIQMTQSPLSLSASVGDRVTITCRASQGIGHYLAWYQQKPGKVPKLLIYTASTLQSGVPSRFSGSGSGTDFTLTINSLQPEDVATYYCQQFNSYPHTFGQGTRLDIK
modifications: Synthetically generated peptide
As to B1, the “effect of germlining on binding activity” value was “minimal impact on the binding activity” in assay [1] and “minimal effect on the binding activity” in assay [2]. The “binding to total platelets (CD42)” value in the assay on human platelets is recorded as “Only a background number; also recorded: no significant binding to total platelets”.
